From publication PMC13139468, “A model for drug transport across two membranes of Gram-negative bacteria by an MFS tripartite assembly” (Nature Communications, 2026)

T1: TolC (TolC-FLAG) (E. coli K-12 strain MG1655, UniProt P02930 23-493)
T1 construct: also called TolC OM channel; not shown: FLAG, C-terminal, kept
T1 sequence: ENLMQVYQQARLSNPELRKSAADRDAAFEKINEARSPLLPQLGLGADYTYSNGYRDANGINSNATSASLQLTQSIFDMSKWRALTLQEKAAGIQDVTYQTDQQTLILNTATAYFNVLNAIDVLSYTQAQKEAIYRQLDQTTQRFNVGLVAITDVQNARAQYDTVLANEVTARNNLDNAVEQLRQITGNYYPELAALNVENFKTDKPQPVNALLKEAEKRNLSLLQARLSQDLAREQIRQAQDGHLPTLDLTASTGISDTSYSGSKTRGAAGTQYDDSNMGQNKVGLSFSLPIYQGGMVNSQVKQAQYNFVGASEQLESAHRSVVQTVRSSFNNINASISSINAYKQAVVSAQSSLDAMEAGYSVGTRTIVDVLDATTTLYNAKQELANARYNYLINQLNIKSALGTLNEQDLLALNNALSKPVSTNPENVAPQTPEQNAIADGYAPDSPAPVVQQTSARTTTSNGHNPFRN

T2: EmrB (modified EmrB, the BRIL-EmrB-ALFA part of the EmrB-EmrA fusion protein) (E. coli K-12 strain MG1655, UniProt P0AEJ0 13-498)
T2 construct: also called EmrB IM transporter; EmrB-EmrA fusion protein (EmrB part); not shown: BRIL (thermostabilized apocytochrome b562RIL), N-terminal, kept; ALFA, C-terminal, kept
T2 sequence: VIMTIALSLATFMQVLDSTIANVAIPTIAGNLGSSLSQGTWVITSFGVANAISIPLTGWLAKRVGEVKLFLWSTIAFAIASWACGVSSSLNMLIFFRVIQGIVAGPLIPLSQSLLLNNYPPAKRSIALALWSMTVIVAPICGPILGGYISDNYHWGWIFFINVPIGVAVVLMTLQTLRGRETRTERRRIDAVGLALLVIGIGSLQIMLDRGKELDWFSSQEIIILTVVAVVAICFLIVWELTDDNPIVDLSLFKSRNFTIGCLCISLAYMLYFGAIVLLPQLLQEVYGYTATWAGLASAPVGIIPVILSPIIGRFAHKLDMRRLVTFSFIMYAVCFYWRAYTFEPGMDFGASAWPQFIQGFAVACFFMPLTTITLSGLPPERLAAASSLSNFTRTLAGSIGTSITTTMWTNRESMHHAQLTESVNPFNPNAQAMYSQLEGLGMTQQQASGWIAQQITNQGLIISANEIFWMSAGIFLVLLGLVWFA

B1: wild-type free EmrA (natural protein)
chain: MSANAETQTPQQPVKKSGKRKRLLLLLTLLFIIIAVAIGIYWFLVLRHFEETDDAYVAGNQIQIMSQVSGSVTKVWADNTDFVKEGDVLVTLDPTDARQAFEKAKTALASSVRQTHQLMINSKQLQANIEVQKIALAKAQSDYNRRVPLGNANLIGREELQHARDAVTSAQAQLDVAIQQYNANQAMILGTKLEDQPAVQQAATEVRNAWLALERTRIISPMTGYVSRRAVQPGAQISPTTPLMAVVPATNMWVDANFKETQIANMRIGQPVTITTDIYGDDVKYTGKVVGLDMGTGSAFSLLPAQNATGNWIKVVQRLPVRIELDQKQLEQYPLRIGLSTLVSVNTTNRDGQVLANKVRSTPVAVSTAREISLAPVNKLIDDIVKANAG
notes: also called free EmrA of pump-FA
B2: EmrA (EmrA part of the EmrB-EmrA fusion protein, C-terminal 6His) (natural protein)
chain: MSANAETQTPQQPVKKSGKRKRLLLLLTLLFIIIAVAIGIYWFLVLRHFEETDDAYVAGNQIQIMSQVSGSVTKVWADNTDFVKEGDVLVTLDPTDARQAFEKAKTALASSVRQTHQLMINSKQLQANIEVQKIALAKAQSDYNRRVPLGNANLIGREELQHARDAVTSAQAQLDVAIQQYNANQAMILGTKLEDQPAVQQAATEVRNAWLALERTRIISPMTGYVSRRAVQPGAQISPTTPLMAVVPATNMWVDANFKETQIANMRIGQPVTITTDIYGDDVKYTGKVVGLDMGTGSAFSLLPAQNATGNWIKVVQRLPVRIELDQKQLEQYPLRIGLSTLVSVNTTNRDGQVLANKVRSTPVAVSTAREISLAPVNKLIDDIVKANAG
notes: also called EmrB-EmrA fusion protein (EmrA part); fused EmrA; not shown: His6, C-terminal, kept
B3: modified free EmrA (N-terminal residues 1-47 replaced by residues 1-27 of AcrA) (other)
chain: CDDHFEETDDAYVAGNQIQIMSQVSGSVTKVWADNTDFVKEGDVLVTLDPTDARQAFEKAKTALASSVRQTHQLMINSKQLQANIEVQKIALAKAQSDYNRRVPLGNANLIGREELQHARDAVTSAQAQLDVAIQQYNANQAMILGTKLEDQPAVQQAATEVRNAWLALERTRIISPMTGYVSRRAVQPGAQISPTTPLMAVVPATNMWVDANFKETQIANMRIGQPVTITTDIYGDDVKYTGKVVGLDMGTGSAFSLLPAQNATGNWIKVVQRLPVRIELDQKQLEQYPLRIGLSTLVSVNTTNRDGQVLANKVRSTPVAVSTAREISLAPVNKLIDDIVKANAG
modifications: C25 (AcrA numbering) modified by a palmitoyl acid chain
notes: also called acrAsignal-ΔemrA; free EmrA of pump-EA

Tests used:
[1] = target: the molecule itself; assay: cryo-EM structure; EmrAB-TolC pump-FA (EmrB-EmrA fusion protein, wild-type free EmrA, TolC-FLAG), co-expressed and purified as a complex, in peptidisc, 0.1 mg/mL, graphene-covered grids; single-particle cryo-EM, 300 kV; maps at 3.59 Å and 3.66 Å
TolC (TolC-FLAG) [2] = target: T1, TolC (TolC-FLAG); assay: as above; details: both partners purified
[3] = target: T2, EmrB (modified EmrB, the BRIL-EmrB-ALFA …); assay: as above; details: both partners purified
[4] = target: T2, EmrB (modified EmrB, the BRIL-EmrB-ALFA …); assay: cryo-EM structure; EmrAB-TolC pump-EA (EmrB-EmrA fusion protein, modified free EmrA, TolC-FLAG), co-expressed and purified as a complex, in peptidisc, 0.7 mg/mL, holey carbon grids; single-particle cryo-EM, 300 kV; maps at 3.13 Å and 3.14 Å; details: both partners purified
[5] = target: the molecule itself; assay: as above
TolC (TolC-FLAG) [6] = target: T1, TolC (TolC-FLAG); assay: as above; details: both partners purified
[7] = target: B2; assay: as above; details: both partners purified

| Binder | stoichiometry N [1] | binding result (TolC (TolC-FLAG) [2]) | binding result [3] | binding result [4] | stoichiometry N [5] | binding result (TolC (TolC-FLAG) [6]) | binding result [7] |
| --- | --- | --- | --- | --- | --- | --- | --- |
| B1 | 6 | binds | binds | – | – | – | – |
| B2 | – | binds | – | binds | – | – | – |
| B3 | – | – | – | binds | 6 | binds | binds |
